Laboratory results from US20060257410A1 (CHEMOCENTRYX, published 2006).

Legend:
CXCR2 = target: T1, CXCR2 (UniProt P25025 1-360, limits assumed); experiment: flow cytometry on transfected HEK 293 cells
T1 construct: whole, on cells
T1 sequence (looked up): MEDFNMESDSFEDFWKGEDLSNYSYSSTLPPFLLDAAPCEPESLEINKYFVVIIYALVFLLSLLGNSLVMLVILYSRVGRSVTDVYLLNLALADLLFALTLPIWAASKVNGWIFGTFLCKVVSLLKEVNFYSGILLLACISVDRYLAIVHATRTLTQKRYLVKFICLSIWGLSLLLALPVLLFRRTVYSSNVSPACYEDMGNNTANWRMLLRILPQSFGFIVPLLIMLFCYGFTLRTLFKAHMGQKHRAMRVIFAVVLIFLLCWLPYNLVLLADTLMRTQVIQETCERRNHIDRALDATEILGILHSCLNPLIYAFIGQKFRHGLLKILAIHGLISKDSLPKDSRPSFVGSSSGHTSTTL

[1] = target: T2, mouse homolog of CCX CKR2 (mouse, UniProt P56485 1-362); experiment: IHC on fixed paraffin embedded tissue sections
T2 construct: whole, on cells; also called mouse CCX-CKR2
T2 sequence (P56485 whole entry): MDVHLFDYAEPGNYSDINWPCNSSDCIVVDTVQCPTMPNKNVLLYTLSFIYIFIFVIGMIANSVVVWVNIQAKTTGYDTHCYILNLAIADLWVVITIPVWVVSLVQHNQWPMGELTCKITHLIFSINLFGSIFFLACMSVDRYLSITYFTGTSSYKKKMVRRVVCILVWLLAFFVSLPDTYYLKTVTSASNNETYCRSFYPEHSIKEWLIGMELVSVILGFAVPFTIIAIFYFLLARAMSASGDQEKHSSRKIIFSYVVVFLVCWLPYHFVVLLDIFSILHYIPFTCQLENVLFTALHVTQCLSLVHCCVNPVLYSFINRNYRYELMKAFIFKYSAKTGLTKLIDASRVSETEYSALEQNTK

B1: monoclonal antibody 6E10 (antibody, V domains shown)
VH: EVKLDETGGGLVQPGRPMKLSCVASGFTFSDYWMNWVRQSPEKGLEWVGQIRNKPYNYETYYSDSVKGRFTISRDDSKSSVYLQMNNLRTEDTGIYYCTSLRYWGQGTLVTVSA
VL: DIVMTQSPSSLTVTAGEKVTMSCKSSHSLLNSGIQKNFLTWYQQKPGQPPKVLIYWAFTRESGVPERFTGSGSGTDFTLTISSVQAEDLAVYYCQSDYTYPFTFGSGTKLEIKR
notes: Mouse hybridoma monoclonal antibody raised by gene gun inoculation with CCX-CKR2 cDNA
B1: no binding (CXCR2); binds [1].

B2: monoclonal antibody 11G8 (antibody, V domains shown)
VH: EVKLVESGGDLVQPGGSLKLSCATSGFTFSDYYMFWVRQTPEKRLEWVAYITNGGDRSYYSDTVTGRFIISRDNAKNTLYLQMSRLKSEDTAMYYCARQGNWAAWFVYWGQGTLVTVSA
VL: DVLMTQTPLSLPVSLGDQASISCRSSHYIVHSDGNTYLEWYLQKPGQSPKLLIYKVSNRFSGVPDRFSGSGSGTDFTLKISRVEAEDLGIYYCFQGSHVPLTFGAGTKLELKR
notes: as for B1
B2: no binding (CXCR2); binds [1].
